In patent publication US20240076396A1 (Regeneron, published 2024):

T1: hGITR.mFc (dimeric recombinant human GITR ectodomain protein, mouse Fc fusion) (human)
T1 construct: also called dimeric human GITR; dimeric GITR
T1 chain: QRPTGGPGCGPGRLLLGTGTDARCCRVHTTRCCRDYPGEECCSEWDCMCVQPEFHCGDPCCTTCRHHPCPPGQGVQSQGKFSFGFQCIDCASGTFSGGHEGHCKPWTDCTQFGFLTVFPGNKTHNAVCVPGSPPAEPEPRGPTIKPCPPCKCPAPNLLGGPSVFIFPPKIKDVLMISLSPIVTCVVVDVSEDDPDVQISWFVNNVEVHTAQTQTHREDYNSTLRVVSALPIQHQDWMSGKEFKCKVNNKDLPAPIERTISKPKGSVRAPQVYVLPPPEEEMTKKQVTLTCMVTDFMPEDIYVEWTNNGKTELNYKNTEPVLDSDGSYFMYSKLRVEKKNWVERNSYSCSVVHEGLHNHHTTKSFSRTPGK

T2: hGITR.mmH (soluble monomeric recombinant human GITR ectodomain protein) (human)
T2 construct: also called monomeric human GITR
T2 chain: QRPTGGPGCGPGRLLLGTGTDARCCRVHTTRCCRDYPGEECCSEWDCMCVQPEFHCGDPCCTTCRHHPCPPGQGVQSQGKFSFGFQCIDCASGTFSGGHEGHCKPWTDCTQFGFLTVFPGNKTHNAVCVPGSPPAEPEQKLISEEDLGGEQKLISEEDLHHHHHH


Key:
[1] = target: T1, hGITR.mFc (dimeric recombinant human …); test: SPR Biacore 2000 25C; CHOt supernatant antibody captured on anti-human Fc; 50 nM hGITR.mFc
Protocol: (§1) Biacore experiments for antibodies secreted in conditioned culture medium were performed as follows. Using a Biacore 2000 instrument at 25° C., antibodies were captured for 80 seconds at a flow rate of 8 uL/min on a CM5 anti-humanFc-coupled surface. Approximately 1000-2000 RU of each antibody were captured. 100 nM hGITR.mmH (soluble monomeric hGITR, SEQ ID NO: 45) or 50 nM hGITR.mFc (dimeric Macaca fasicularis GITR, SEQ ID NO: 46) were injected over this surface for 2 minutes at a flow rate of 50 uL/min. Dissociation was measured for 2 minutes. The KD and t_{1/2} were calculated by fitting the double-referenced sensorgrams to a 1:1 binding model.

[2] = target: T2, hGITR.mmH (soluble monomeric …); test: SPR Biacore 2000 25C; CHOt supernatant antibody captured on anti-human Fc; 100 nM hGITR.mmH
Protocol: as §1

Binder | Kd [1] | t1/2 [1] | Kd [2] | t1/2 [2]
CompAb1 heavy chain variant N101I (antibody, human IgG1, V domains shown, human IgG1 constant region; tested as CHOt supernatant; also called Sample Number 8) VH: QVQLQESGPGLVKPSETLSLTCIVSGGSISGYFWNWIRQPPGKGLEWIGYIYYSGTTIYNPSLKSRFTISLDTSKNQFSLKLTSVTAADTAVYYCARESYIPSPRYFDHWGQGTLVTVSS VL: not shown | 27.5 nM | 0.72 min | 329 nM | 1.32 min
CompAb1 heavy chain variant S103F (antibody, human IgG1, V domains shown, human IgG1 constant region; tested as CHOt supernatant; also called Sample Number 23) VH: QVQLQESGPGLVKPSETLSLTCIVSGGSISGYFWNWIRQPPGKGLEWIGYIYYSGTTIYNPSLKSRFTISLDTSKNQFSLKLTSVTAADTAVYYCARESYNPFPRYFDHWGQGTLVTVSS VL: not shown | 2.33 nM | 12.8 min | 7.35 nM | 13.6 min
CompAb1 heavy chain variant S103N (antibody, human IgG1, V domains shown, human IgG1 constant region; tested as CHOt supernatant; also called Sample Number 30) VH: QVQLQESGPGLVKPSETLSLTCIVSGGSISGYFWNWIRQPPGKGLEWIGYIYYSGTTIYNPSLKSRFTISLDTSKNQFSLKLTSVTAADTAVYYCARESYNPNPRYFDHWGQGTLVTVSS VL: not shown | 1.01 nM | 41.4 min | 119 nM | 0.95 min
CompAb1 heavy chain variant S103H (antibody, human IgG1, V domains shown, human IgG1 constant region; tested as CHOt supernatant; also called Sample Number 25) VH: QVQLQESGPGLVKPSETLSLTCIVSGGSISGYFWNWIRQPPGKGLEWIGYIYYSGTTIYNPSLKSRFTISLDTSKNQFSLKLTSVTAADTAVYYCARESYNPHPRYFDHWGQGTLVTVSS VL: not shown | 6.68 nM | 4.63 min | 12.6 nM | 16.4 min
CompAb1 heavy chain variant S103P (antibody, human IgG1, V domains shown, human IgG1 constant region; tested as CHOt supernatant; also called Sample Number 31) VH: QVQLQESGPGLVKPSETLSLTCIVSGGSISGYFWNWIRQPPGKGLEWIGYIYYSGTTIYNPSLKSRFTISLDTSKNQFSLKLTSVTAADTAVYYCARESYNPPPRYFDHWGQGTLVTVSS VL: not shown | 7.79 nM | 2.92 min | 28.4 nM | 11.2 min
CompAb1 heavy chain variant S103W (antibody, human IgG1, V domains shown, human IgG1 constant region; tested as CHOt supernatant; also called Sample Number 36) VH: QVQLQESGPGLVKPSETLSLTCIVSGGSISGYFWNWIRQPPGKGLEWIGYIYYSGTTIYNPSLKSRFTISLDTSKNQFSLKLTSVTAADTAVYYCARESYNPWPRYFDHWGQGTLVTVSS VL: not shown | 1.61 nM | 27 min | 116 nM | 0.94 min
CompAb1 heavy chain variant N101K (antibody, human IgG1, V domains shown, human IgG1 constant region; tested as CHOt supernatant; also called Sample Number 9) VH: QVQLQESGPGLVKPSETLSLTCIVSGGSISGYFWNWIRQPPGKGLEWIGYIYYSGTTIYNPSLKSRFTISLDTSKNQFSLKLTSVTAADTAVYYCARESYKPSPRYFDHWGQGTLVTVSS VL: not shown | 26.9 nM | 0.99 min | 17 nM | 4.91 min
CompAb1 heavy chain variant S103E (antibody, human IgG1, V domains shown, human IgG1 constant region; tested as CHOt supernatant; also called Sample Number 22) VH: QVQLQESGPGLVKPSETLSLTCIVSGGSISGYFWNWIRQPPGKGLEWIGYIYYSGTTIYNPSLKSRFTISLDTSKNQFSLKLTSVTAADTAVYYCARESYNPEPRYFDHWGQGTLVTVSS VL: not shown | 0.742 nM | 42.4 min | 119 nM | 0.76 min
CompAb1 heavy chain variant S103Q (antibody, human IgG1, V domains shown, human IgG1 constant region; tested as CHOt supernatant; also called Sample Number 32) VH: QVQLQESGPGLVKPSETLSLTCIVSGGSISGYFWNWIRQPPGKGLEWIGYIYYSGTTIYNPSLKSRFTISLDTSKNQFSLKLTSVTAADTAVYYCARESYNPQPRYFDHWGQGTLVTVSS VL: not shown | 0.255 nM | 124 min | 96.8 nM | 0.92 min
CompAb1 heavy chain variant S103A (antibody, human IgG1, V domains shown, human IgG1 constant region; tested as CHOt supernatant; also called Sample Number 20) VH: QVQLQESGPGLVKPSETLSLTCIVSGGSISGYFWNWIRQPPGKGLEWIGYIYYSGTTIYNPSLKSRFTISLDTSKNQFSLKLTSVTAADTAVYYCARESYNPAPRYFDHWGQGTLVTVSS VL: not shown | 0.529 nM | 50.3 min | 108 nM | 0.83 min
CompAb1 heavy chain variant S103D (antibody, human IgG1, V domains shown, human IgG1 constant region; tested as CHOt supernatant; also called Sample Number 21) VH: QVQLQESGPGLVKPSETLSLTCIVSGGSISGYFWNWIRQPPGKGLEWIGYIYYSGTTIYNPSLKSRFTISLDTSKNQFSLKLTSVTAADTAVYYCARESYNPDPRYFDHWGQGTLVTVSS VL: not shown | 0.595 nM | 65 min | 77.1 nM | 1.01 min
CompAb1 heavy chain variant S103L (antibody, human IgG1, V domains shown, human IgG1 constant region; tested as CHOt supernatant; also called Sample Number 28) VH: QVQLQESGPGLVKPSETLSLTCIVSGGSISGYFWNWIRQPPGKGLEWIGYIYYSGTTIYNPSLKSRFTISLDTSKNQFSLKLTSVTAADTAVYYCARESYNPLPRYFDHWGQGTLVTVSS VL: not shown | 15.9 nM | 1.66 min | 85.2 nM | 4.59 min
CompAb1 heavy chain variant S103T (antibody, human IgG1, V domains shown, human IgG1 constant region; tested as CHOt supernatant; also called Sample Number 34) VH: QVQLQESGPGLVKPSETLSLTCIVSGGSISGYFWNWIRQPPGKGLEWIGYIYYSGTTIYNPSLKSRFTISLDTSKNQFSLKLTSVTAADTAVYYCARESYNPTPRYFDHWGQGTLVTVSS VL: not shown | 0.127 nM | 249 min | 29.6 nM | 3.88 min
CompAb1 heavy chain variant S103I (antibody, human IgG1, V domains shown, human IgG1 constant region; tested as CHOt supernatant; also called Sample Number 26) VH: QVQLQESGPGLVKPSETLSLTCIVSGGSISGYFWNWIRQPPGKGLEWIGYIYYSGTTIYNPSLKSRFTISLDTSKNQFSLKLTSVTAADTAVYYCARESYNPIPRYFDHWGQGTLVTVSS VL: not shown | 6.51 nM | 4.41 min | 10.1 nM | 11.5 min
CompAb1 heavy chain variant N101R (antibody, human IgG1, V domains shown, human IgG1 constant region; tested as CHOt supernatant; also called Sample Number 14) VH: QVQLQESGPGLVKPSETLSLTCIVSGGSISGYFWNWIRQPPGKGLEWIGYIYYSGTTIYNPSLKSRFTISLDTSKNQFSLKLTSVTAADTAVYYCARESYRPSPRYFDHWGQGTLVTVSS VL: not shown | 29.4 nM | 0.86 min | – | –
CompAb1 heavy chain variant S103G (antibody, human IgG1, V domains shown, human IgG1 constant region; tested as CHOt supernatant; also called Sample Number 24) VH: QVQLQESGPGLVKPSETLSLTCIVSGGSISGYFWNWIRQPPGKGLEWIGYIYYSGTTIYNPSLKSRFTISLDTSKNQFSLKLTSVTAADTAVYYCARESYNPGPRYFDHWGQGTLVTVSS VL: not shown | 5.56 nM | 7.4 min | – | –
CompAb1 heavy chain variant N101M (antibody, human IgG1, V domains shown, human IgG1 constant region; tested as CHOt supernatant; also called Sample Number 11) VH: QVQLQESGPGLVKPSETLSLTCIVSGGSISGYFWNWIRQPPGKGLEWIGYIYYSGTTIYNPSLKSRFTISLDTSKNQFSLKLTSVTAADTAVYYCARESYMPSPRYFDHWGQGTLVTVSS VL: not shown | 24 nM | 0.82 min | 152 nM | 1.93 min
CompAb1 heavy chain variant N101Q (antibody, human IgG1, V domains shown, human IgG1 constant region; tested as CHOt supernatant; also called Sample Number 13) VH: QVQLQESGPGLVKPSETLSLTCIVSGGSISGYFWNWIRQPPGKGLEWIGYIYYSGTTIYNPSLKSRFTISLDTSKNQFSLKLTSVTAADTAVYYCARESYQPSPRYFDHWGQGTLVTVSS VL: not shown | 9.98 nM | 3.86 min | 3.41 nM | 16.7 min
CompAb1 heavy chain variant S103V (antibody, human IgG1, V domains shown, human IgG1 constant region; tested as CHOt supernatant; also called Sample Number 35) VH: QVQLQESGPGLVKPSETLSLTCIVSGGSISGYFWNWIRQPPGKGLEWIGYIYYSGTTIYNPSLKSRFTISLDTSKNQFSLKLTSVTAADTAVYYCARESYNPVPRYFDHWGQGTLVTVSS VL: not shown | 3.82 nM | 7.8 min | 7.39 nM | 14.7 min
CompAb1 heavy chain variant S103M (antibody, human IgG1, V domains shown, human IgG1 constant region; tested as CHOt supernatant; also called Sample Number 29) VH: QVQLQESGPGLVKPSETLSLTCIVSGGSISGYFWNWIRQPPGKGLEWIGYIYYSGTTIYNPSLKSRFTISLDTSKNQFSLKLTSVTAADTAVYYCARESYNPMPRYFDHWGQGTLVTVSS VL: not shown | 1.04 nM | 27.3 min | 4.62 nM | 15.2 min
CompAb1 heavy chain variant S103Y (antibody, human IgG1, V domains shown, human IgG1 constant region; tested as CHOt supernatant; also called Sample Number 37) VH: QVQLQESGPGLVKPSETLSLTCIVSGGSISGYFWNWIRQPPGKGLEWIGYIYYSGTTIYNPSLKSRFTISLDTSKNQFSLKLTSVTAADTAVYYCARESYNPYPRYFDHWGQGTLVTVSS VL: not shown | 3.03 nM | 10.4 min | 4.39 nM | 26.6 min
CompAb1 heavy chain variant N101V (antibody, human IgG1, V domains shown, human IgG1 constant region; tested as CHOt supernatant; also called Sample Number 17) VH: QVQLQESGPGLVKPSETLSLTCIVSGGSISGYFWNWIRQPPGKGLEWIGYIYYSGTTIYNPSLKSRFTISLDTSKNQFSLKLTSVTAADTAVYYCARESYVPSPRYFDHWGQGTLVTVSS VL: not shown | 23.9 nM | 0.98 min | 29.1 nM | 3.46 min
